Results: patent publication US20110262430A1 (published 2011)

Key:
[1] = target: T1, Cynomolgus macaque monkey IGF-1R-Fc fusion protein (cynomolgus macaque monkey (Macaca …)); assay: binding ELISA: plate coated with recombinant cynomolgus macaque IGF-1R-Fc, antibody titrated, anti-mouse Ig-HRP detection, OD 450nm
T1 construct: The entry begins with the native signal peptide; also called recombinant Cynomolgus macaque IGF-1R; recombinant cynomolgus macaque IGF-1R
Description: (§1) 96 well ELISA plates were coated overnight with recombinant Cynomolgus macaque IGF-1R (see Example 4) at 1-2 μg/ml and blocked with 4% BSA/PBS. Purified anti-hIGF-1R antibodies were added and incubated for 1 hour at room temperature. The plates were washed in TBST and HRP conjugated anti mouse Ig (DAKO #P0260) was added to each well at 0.6-1.0 μg/ml. Plates were incubated for 1 hour at room temperature, washed with TBST and developed with OPD substrate (Sigma P9187) or TMB substrate (Sigma T8665). […] For antibodies containing a human IgG1/Cκ constant region, the HRP conjugated anti mouse Ig detection antibody was substituted with a goat anti-human Kappa Light Chains peroxidase conjugate (Sigma, A7164)

[2] = target: T1, Cynomolgus macaque monkey IGF-1R-Fc …; assay: binding ELISA: plate coated with recombinant cynomolgus macaque IGF-1R-Fc, antibody titrated, anti-human kappa light chain-HRP detection, OD 490nm
Description: as §1

[3] = target: T2, His-tagged FcγRIIIa (F variant) extracellular domain (Heterogeneously glycosylated.); assay: Biacore T100, His-tagged FcγRIIIa captured on anti-polyhistidine antibody, antibody injected 2-512 nM, 25°C, 1:1 model
T2 construct: also called FcγRIIIa (Phe); FcγRIIIa (Phe variant)
T2 sequence (chain, as listed by the source mutant limits assumed): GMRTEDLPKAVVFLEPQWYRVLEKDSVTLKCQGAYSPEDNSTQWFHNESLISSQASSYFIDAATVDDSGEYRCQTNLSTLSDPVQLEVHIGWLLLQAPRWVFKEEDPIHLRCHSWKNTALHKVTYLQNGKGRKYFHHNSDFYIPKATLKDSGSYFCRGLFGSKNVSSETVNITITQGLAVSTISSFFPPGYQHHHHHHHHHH
Description: (§2) Qiagen anti-polyhistidine antibody (Cat No. 34670) was immobilised on CM5 biosensor chip using standard NHS/EDC activation, the antibody was diluted to 50 ug/ml in acetate pH4.0 buffer and passed over the activated surface for 20 minutes at 5 ul/minute, the surface was then blocked with ethanolamine. Prior to use the chip was conditioned by performing several regeneration steps using 100 mM phosphoric acid.
(§3) For analysis of the interaction of the FcγRIIIa with various antibody constructs, the poly-histidine tagged receptors were captured to around 20 RU's. […] Regeneration was carried out using 100 mM phosphoric acid following each antibody/buffer injection. The run was carried out using HBS-EP buffer and carried out at 25° C. on a T100 Biacore machine. The data was analysed using the analysis software inherent to the machine using the 1:1 and Bivalent models.

[4] = target: T3, His-tagged FcγRIIIa (V variant) extracellular domain (Heterogeneously glycosylated.); assay: as above
T3 construct: also called FcγRIIIa (Val); FcγRIIIa (Val variant)
T3 sequence (chain, as listed by the source mutant limits assumed): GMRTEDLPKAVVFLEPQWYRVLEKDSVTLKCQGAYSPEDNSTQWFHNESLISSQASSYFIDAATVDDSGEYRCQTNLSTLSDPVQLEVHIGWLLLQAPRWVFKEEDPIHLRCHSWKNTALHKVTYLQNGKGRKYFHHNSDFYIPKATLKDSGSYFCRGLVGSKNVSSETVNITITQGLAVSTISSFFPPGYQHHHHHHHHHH
Description: as §2, §3

[5] = target: T2, His-tagged FcγRIIIa (F variant) …; assay: Biacore T100, His-tagged FcγRIIIa captured on anti-polyhistidine antibody, antibody injected 2-512 nM, 25°C, Bivalent model
Description: as §2, §3

[6] = target: T3, His-tagged FcγRIIIa (V variant) …; assay: as above
Description: as §2, §3

T1 sequence (chain, as listed by the source limits assumed): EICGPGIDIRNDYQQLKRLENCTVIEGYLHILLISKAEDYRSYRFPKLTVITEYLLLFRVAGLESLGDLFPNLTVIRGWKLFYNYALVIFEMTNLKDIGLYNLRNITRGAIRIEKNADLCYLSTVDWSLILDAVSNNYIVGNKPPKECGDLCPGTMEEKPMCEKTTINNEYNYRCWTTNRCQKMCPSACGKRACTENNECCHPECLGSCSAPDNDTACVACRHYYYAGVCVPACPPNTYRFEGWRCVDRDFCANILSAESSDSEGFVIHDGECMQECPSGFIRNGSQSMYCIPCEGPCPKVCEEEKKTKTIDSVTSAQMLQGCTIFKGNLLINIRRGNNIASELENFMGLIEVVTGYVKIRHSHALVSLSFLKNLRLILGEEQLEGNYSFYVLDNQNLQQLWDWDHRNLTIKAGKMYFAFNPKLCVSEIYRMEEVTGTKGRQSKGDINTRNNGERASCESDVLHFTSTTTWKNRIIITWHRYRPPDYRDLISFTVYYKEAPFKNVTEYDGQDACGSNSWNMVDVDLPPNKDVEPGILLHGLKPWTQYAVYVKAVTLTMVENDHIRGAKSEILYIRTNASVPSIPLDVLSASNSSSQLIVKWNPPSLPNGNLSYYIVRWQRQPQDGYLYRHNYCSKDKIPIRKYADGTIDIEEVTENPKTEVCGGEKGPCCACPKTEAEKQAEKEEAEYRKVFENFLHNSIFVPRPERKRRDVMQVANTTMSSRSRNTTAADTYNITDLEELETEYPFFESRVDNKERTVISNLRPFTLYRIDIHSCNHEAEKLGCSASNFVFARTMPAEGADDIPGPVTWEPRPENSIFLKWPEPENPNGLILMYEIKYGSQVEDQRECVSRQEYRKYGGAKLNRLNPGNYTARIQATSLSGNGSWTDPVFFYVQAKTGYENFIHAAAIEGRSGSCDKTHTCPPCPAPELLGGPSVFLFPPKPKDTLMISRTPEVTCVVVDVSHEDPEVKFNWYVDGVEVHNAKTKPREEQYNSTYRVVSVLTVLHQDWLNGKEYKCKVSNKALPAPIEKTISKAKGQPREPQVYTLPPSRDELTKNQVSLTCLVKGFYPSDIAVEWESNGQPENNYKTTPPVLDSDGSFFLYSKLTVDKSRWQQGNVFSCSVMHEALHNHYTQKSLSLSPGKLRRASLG

| binding result [2] | Kd [3] | Kd [4] | Kd [5] | Kd [6] | Binder | further results |
| --- | --- | --- | --- | --- | --- | --- |
| binds | – | – | – | – | H0L0 IgG1m(AA) (antibody) heavy: not shown light: DIVMTQSPLSLPVTPGEPASISCRSSQSIVQSNGDTYLEWYLQKPGQSPQLLIYRVSNRFSGVPDRFSGSGSGTDFTLKISRVEAEDVGVYYCFQGSHVPYTFGQGTKLEIKRTVAAPSVFIFPPSDEQLKSGTASVVCLLNNFYPREAKVQWKVDNALQSGNSQESVTEQDSKDSTYSLSSTLTLSKADYEKHKVYACEVTHQGLSSPVTKSFNRGEC | – |
| binds | – | – | – | – | H1L0 IgG1m(AA) (antibody, also called H10L0 IgG1m(AA) (as misprinted in several captions)) heavy: not shown light: DIVMTQSPLSLPVTPGEPASISCRSSQSIVQSNGDTYLEWYLQKPGQSPQLLIYRVSNRFSGVPDRFSGSGSGTDFTLKISRVEAEDVGVYYCFQGSHVPYTFGQGTKLEIKRTVAAPSVFIFPPSDEQLKSGTASVVCLLNNFYPREAKVQWKVDNALQSGNSQESVTEQDSKDSTYSLSSTLTLSKADYEKHKVYACEVTHQGLSSPVTKSFNRGEC | – |
| binds | – | – | – | – | H1L0 humanised antibody (wild type human IgG1) (antibody) heavy: not shown light: DIVMTQSPLSLPVTPGEPASISCRSSQSIVQSNGDTYLEWYLQKPGQSPQLLIYRVSNRFSGVPDRFSGSGSGTDFTLKISRVEAEDVGVYYCFQGSHVPYTFGQGTKLEIKRTVAAPSVFIFPPSDEQLKSGTASVVCLLNNFYPREAKVQWKVDNALQSGNSQESVTEQDSKDSTYSLSSTLTLSKADYEKHKVYACEVTHQGLSSPVTKSFNRGEC | – |
| – | 20.7 nM | 5.9 nM | 75.6 nM | 74.1 nM | CD20-B (anti-CD20 IgG1, wild type constant region, FUT8 deleted CHO DG44) (antibody, The Fc N-glycan is expected to lack fucose (host: FUT8 deleted CHO DG44). The letters cannot carry this.) heavy: not shown light: QIVLSQSPAILSASPGEKVTMTCRASSSVSYIHWFQQKPGSSPKPWIYATSNLASGVPVRFSGSGSGTSYSLTISRVEAEDAATYYCQQWTSNPPTFGGGTKLEIKRTVAAPSVFIFPPSDEQLKSGTASVVCLLNNFYPREAKVQWKVDNALQSGNSQESVTEQDSKDSTYSLSSTLTLSKADYEKHKVYACEVTHQGLSSPVTKSFNRGEC | – |
| – | 14.9 nM | 7.27 nM | 88.9 nM | 68.8 nM | IGF1R-G (anti-IGF-1R H0L0 IgG1 with S239D/I332E, CHO-E1a) (antibody, Campath leader left out) heavy: not shown light: DIVMTQSPLSLPVTPGEPASISCRSSQSIVQSNGDTYLEWYLQKPGQSPQLLIYRVSNRFSGVPDRFSGSGSGTDFTLKISRVEAEDVGVYYCFQGSHVPYTFGQGTKLEIKRTVAAPSVFIFPPSDEQLKSGTASVVCLLNNFYPREAKVQWKVDNALQSGNSQESVTEQDSKDSTYSLSSTLTLSKADYEKHKVYACEVTHQGLSSPVTKSFNRGEC | – |
| – | 1.11 nM | 0.832 nM | 51.7 nM | 2.7 nM | IGF1R-H (anti-IGF-1R H0L0 IgG1 with S239D/I332E, FUT8 deleted CHO DG44) (antibody, N-glycan from FUT8 deleted CHO DG44 host (glycoengineered), Same chains as IGF1R-G; differs by the host cell line; Campath leader left out) heavy: not shown light: DIVMTQSPLSLPVTPGEPASISCRSSQSIVQSNGDTYLEWYLQKPGQSPQLLIYRVSNRFSGVPDRFSGSGSGTDFTLKISRVEAEDVGVYYCFQGSHVPYTFGQGTKLEIKRTVAAPSVFIFPPSDEQLKSGTASVVCLLNNFYPREAKVQWKVDNALQSGNSQESVTEQDSKDSTYSLSSTLTLSKADYEKHKVYACEVTHQGLSSPVTKSFNRGEC | – |

The next lines start with the binder.

| Binder | binding result [2] | Kd [3] | Kd [4] | Kd [5] | Kd [6] | further results |
| --- | --- | --- | --- | --- | --- | --- |
| 6E11 murine monoclonal antibody (antibody, V domains shown, Murine hybridoma antibody; Constant regions are murine IgG1/K or IgG2b/K; also called 6E11 parental; 6E11 mouse parental antibody) VH: EVQLQQSGPELVKPGASVRISCKASGYAFTDYYMNWVKQSHGKSLEWVANINPNNGGTNYNQKFKDKATLTVDKSSNTAYMELRSLTSEDTAVYYCARWILYYGRSKWYFDVWGTGTTVTVSS VL: DVLMTQTPLSLPVSLGDHASISCRSSQSIVQSNGDTYLEWYLQKPGQSPKLLIYRISNRFSGVPDRFSGSGSGTDFTLKISRVEAEDLGVYYCFQGSHVPYTFGGGTKLEIKR | – | – | – | – | – | EC50 (read off the curve) [1]: ~0.04 µg/mL |
| 5G4 murine monoclonal antibody (antibody, V domains shown, Murine hybridoma antibody; murine constant regions not specified) VH: EVQLQQSGPELVKPGASVKISCKASGYAFTDYYMNWVKQTHGRSLEWMANINPNTGGTNYNQKFRGKATLTVDKSSTTAYMELRSLTSEDSAVYYCARWILYYGSSRWYFDVWGTGTTVTVSS VL: DVLMTQTPLSLPVSLGDQASISCRSSQTIVHSNGNTYLEWYLQKPGQSPKLLIYKVSNRFSGVPDRFSGSGSGTDFTLKISRVEAEDLGIYYCFQGSHVPYTFGGGTKLEIKR | – | – | – | – | – | EC50 (read off the curve) [1]: ~0.1 µg/mL |
| 15D9 murine monoclonal antibody (antibody, V domains shown, Murine hybridoma antibody; murine constant regions not specified) VH: EVQLQQSGPELVKPGASVKISCKASGYAFTDYYMNWVKQSHGKSLEWMANINPNTGGTNYNQKFTGKATLTVDKSSTTAYMELRSLTSEDSAVYYCTRWILYYGSSKWYFDVWGTGTTVTVSS VL: DVLMTQTPLSLPVSLGDQASISCRSSQTIVHSNGNTYLEWYLQKPGQSPKLLIYRVSYRFSGVPDRFSGSGSGTDFTLKISRLEAEDLGIYYCFQGSHVPYTFGGGTKLEIKR | – | – | – | – | – | binding result [1]: binds |
| H0L0 humanised antibody (wild type human IgG1) (antibody) heavy: not shown light: DIVMTQSPLSLPVTPGEPASISCRSSQSIVQSNGDTYLEWYLQKPGQSPQLLIYRVSNRFSGVPDRFSGSGSGTDFTLKISRVEAEDVGVYYCFQGSHVPYTFGQGTKLEIKRTVAAPSVFIFPPSDEQLKSGTASVVCLLNNFYPREAKVQWKVDNALQSGNSQESVTEQDSKDSTYSLSSTLTLSKADYEKHKVYACEVTHQGLSSPVTKSFNRGEC | binds | – | – | – | – | – |
| CD20-A (anti-CD20 IgG1, wild type constant region, CHO-E1a) (antibody) heavy: not shown light: QIVLSQSPAILSASPGEKVTMTCRASSSVSYIHWFQQKPGSSPKPWIYATSNLASGVPVRFSGSGSGTSYSLTISRVEAEDAATYYCQQWTSNPPTFGGGTKLEIKRTVAAPSVFIFPPSDEQLKSGTASVVCLLNNFYPREAKVQWKVDNALQSGNSQESVTEQDSKDSTYSLSSTLTLSKADYEKHKVYACEVTHQGLSSPVTKSFNRGEC | – | – | 39.5 nM | 78.2 nM | 274 nM | – |
| IGF1R-F (anti-IGF-1R H0L0 IgG1, wild type constant region, FUT8 deleted CHO DG44) (antibody, N-glycan fucose negative (all oligosaccharide species obtained from the sample are fucose negative), Same chains as IGF1R-E; differs by the host cell line; Campath leader left out) heavy: not shown light: DIVMTQSPLSLPVTPGEPASISCRSSQSIVQSNGDTYLEWYLQKPGQSPQLLIYRVSNRFSGVPDRFSGSGSGTDFTLKISRVEAEDVGVYYCFQGSHVPYTFGQGTKLEIKRTVAAPSVFIFPPSDEQLKSGTASVVCLLNNFYPREAKVQWKVDNALQSGNSQESVTEQDSKDSTYSLSSTLTLSKADYEKHKVYACEVTHQGLSSPVTKSFNRGEC | – | 59.6 nM | 12.1 nM | 131 nM | 146 nM | – |
